The supplement of paper PMC10065799, “High-throughput profiling of sequence recognition by tyrosine kinases and SH2 domains using bacterial peptide display” (eLife, 2023)

Assays:
c-Abl (mouse) = assay: phosphorylation enrichment, bacterial display (enrichment ratio); higher = better substrate or ligand; peptides without Tyr show the background
Jak2 = Jak2 (UniProt O60674); assay: as above
EPHB2 = EPHB2 (UniProt P29323); assay: as above
FGFR3 = FGFR3 (UniProt P22607); assay: as above
Fer (mouse) = assay: as above
Fyn = Fyn (UniProt P06241); assay: as above
Hck = Hck (UniProt P08631); assay: as above
c-Src = assay: as above
MERTK = MERTK (UniProt Q12866); assay: as above
FGFR1 = FGFR1 (UniProt P11362); assay: as above
AncSZ = assay: as above
Fes = Fes (UniProt P07332); assay: as above
EPHB1 = EPHB1 (UniProt P54762); assay: as above
c-Src SH2 = assay: SH2 binding enrichment of the phosphorylated peptide, bacterial display (enrichment ratio); higher = better substrate or ligand; peptides without Tyr show the background
Grb2 SH2 = Grb2 SH2 (UniProt P62993); assay: as above
SHP2-C SH2 = assay: as above
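Wherever SH2 binding enrichment of the phosphorylated peptide, bacterial display is given: peptide library displayed on the E. coli surface as eCPX fusions, selected cells deep-sequenced, score is each peptide's frequency after selection divided by its frequency in the input.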
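Wherever phosphorylation enrichment, bacterial display is given: 11-residue human phosphosite peptides and single-mutation variants displayed on the E. coli surface, counted by deep sequencing, each peptide's frequency after selection divided by its frequency in the unselected input library; frequency after pTyr selection over input frequency; kinase dosed for 20-30% of maximal phosphorylation in three min.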

Jak2, sequence (O60674 whole entry, looked up): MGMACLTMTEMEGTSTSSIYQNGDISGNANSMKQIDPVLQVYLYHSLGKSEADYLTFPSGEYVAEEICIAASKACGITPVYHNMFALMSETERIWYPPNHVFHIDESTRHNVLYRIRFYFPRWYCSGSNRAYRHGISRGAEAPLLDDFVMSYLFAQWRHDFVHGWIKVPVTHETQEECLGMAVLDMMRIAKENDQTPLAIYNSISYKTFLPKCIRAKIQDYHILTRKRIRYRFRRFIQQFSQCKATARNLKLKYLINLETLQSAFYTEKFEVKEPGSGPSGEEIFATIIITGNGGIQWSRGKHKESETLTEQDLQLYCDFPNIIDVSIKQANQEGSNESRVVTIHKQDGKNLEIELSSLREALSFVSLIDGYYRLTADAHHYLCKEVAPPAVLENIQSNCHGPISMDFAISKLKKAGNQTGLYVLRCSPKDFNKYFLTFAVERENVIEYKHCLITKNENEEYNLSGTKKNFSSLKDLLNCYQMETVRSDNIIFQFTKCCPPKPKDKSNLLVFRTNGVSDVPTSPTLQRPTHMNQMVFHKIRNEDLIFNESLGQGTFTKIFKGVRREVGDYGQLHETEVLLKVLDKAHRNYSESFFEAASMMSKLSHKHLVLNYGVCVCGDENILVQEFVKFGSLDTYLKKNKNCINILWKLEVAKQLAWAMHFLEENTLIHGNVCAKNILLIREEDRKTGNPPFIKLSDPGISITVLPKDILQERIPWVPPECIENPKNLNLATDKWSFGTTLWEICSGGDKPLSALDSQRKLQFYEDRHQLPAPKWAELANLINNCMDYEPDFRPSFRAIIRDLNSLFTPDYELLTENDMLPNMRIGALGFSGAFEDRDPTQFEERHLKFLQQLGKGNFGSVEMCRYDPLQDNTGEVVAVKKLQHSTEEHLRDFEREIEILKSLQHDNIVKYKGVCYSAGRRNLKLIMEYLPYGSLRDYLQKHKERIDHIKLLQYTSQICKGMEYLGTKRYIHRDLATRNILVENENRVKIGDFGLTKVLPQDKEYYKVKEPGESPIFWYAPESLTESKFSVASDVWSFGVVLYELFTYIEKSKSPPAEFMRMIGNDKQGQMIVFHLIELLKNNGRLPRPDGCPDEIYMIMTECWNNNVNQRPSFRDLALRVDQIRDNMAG
Hck, sequence (P08631 whole entry, looked up): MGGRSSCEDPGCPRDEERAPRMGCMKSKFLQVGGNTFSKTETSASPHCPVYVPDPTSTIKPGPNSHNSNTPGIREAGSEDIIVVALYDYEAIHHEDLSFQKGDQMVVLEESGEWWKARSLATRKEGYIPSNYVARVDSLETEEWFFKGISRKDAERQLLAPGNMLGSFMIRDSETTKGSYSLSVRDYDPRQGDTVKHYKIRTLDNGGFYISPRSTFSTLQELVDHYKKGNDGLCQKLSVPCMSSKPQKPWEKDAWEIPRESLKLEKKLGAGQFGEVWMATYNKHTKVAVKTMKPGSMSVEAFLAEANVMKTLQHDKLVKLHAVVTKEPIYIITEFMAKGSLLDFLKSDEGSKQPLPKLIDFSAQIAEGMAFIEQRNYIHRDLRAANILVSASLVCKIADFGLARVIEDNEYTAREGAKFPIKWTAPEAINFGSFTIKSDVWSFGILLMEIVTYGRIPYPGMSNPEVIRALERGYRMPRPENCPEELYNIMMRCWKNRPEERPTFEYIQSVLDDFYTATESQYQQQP
MERTK, sequence (Q12866 whole entry, looked up): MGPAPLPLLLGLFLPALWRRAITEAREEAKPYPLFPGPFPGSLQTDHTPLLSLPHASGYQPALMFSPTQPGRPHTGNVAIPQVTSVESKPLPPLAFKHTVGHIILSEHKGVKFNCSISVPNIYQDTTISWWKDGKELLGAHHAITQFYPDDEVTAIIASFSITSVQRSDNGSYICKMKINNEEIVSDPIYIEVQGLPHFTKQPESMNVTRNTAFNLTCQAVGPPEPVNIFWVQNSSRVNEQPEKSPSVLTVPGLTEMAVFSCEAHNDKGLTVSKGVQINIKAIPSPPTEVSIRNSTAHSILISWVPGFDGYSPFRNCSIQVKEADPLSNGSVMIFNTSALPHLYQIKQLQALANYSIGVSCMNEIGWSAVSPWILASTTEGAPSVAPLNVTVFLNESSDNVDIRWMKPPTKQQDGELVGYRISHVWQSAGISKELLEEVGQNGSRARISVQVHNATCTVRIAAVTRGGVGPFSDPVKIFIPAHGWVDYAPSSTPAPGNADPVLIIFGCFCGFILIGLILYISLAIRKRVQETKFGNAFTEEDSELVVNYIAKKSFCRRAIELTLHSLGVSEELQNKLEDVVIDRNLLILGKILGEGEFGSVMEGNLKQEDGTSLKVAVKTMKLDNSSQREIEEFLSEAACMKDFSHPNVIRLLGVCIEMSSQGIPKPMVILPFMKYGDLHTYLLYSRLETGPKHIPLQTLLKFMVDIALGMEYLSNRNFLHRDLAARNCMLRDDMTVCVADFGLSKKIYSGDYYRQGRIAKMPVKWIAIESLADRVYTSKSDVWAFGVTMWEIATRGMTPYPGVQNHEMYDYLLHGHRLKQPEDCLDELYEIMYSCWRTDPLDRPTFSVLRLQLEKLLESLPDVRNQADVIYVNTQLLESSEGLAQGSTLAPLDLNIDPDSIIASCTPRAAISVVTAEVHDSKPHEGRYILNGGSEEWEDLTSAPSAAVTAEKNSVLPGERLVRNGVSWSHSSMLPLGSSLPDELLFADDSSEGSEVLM
EPHB2, sequence (P29323 whole entry, looked up): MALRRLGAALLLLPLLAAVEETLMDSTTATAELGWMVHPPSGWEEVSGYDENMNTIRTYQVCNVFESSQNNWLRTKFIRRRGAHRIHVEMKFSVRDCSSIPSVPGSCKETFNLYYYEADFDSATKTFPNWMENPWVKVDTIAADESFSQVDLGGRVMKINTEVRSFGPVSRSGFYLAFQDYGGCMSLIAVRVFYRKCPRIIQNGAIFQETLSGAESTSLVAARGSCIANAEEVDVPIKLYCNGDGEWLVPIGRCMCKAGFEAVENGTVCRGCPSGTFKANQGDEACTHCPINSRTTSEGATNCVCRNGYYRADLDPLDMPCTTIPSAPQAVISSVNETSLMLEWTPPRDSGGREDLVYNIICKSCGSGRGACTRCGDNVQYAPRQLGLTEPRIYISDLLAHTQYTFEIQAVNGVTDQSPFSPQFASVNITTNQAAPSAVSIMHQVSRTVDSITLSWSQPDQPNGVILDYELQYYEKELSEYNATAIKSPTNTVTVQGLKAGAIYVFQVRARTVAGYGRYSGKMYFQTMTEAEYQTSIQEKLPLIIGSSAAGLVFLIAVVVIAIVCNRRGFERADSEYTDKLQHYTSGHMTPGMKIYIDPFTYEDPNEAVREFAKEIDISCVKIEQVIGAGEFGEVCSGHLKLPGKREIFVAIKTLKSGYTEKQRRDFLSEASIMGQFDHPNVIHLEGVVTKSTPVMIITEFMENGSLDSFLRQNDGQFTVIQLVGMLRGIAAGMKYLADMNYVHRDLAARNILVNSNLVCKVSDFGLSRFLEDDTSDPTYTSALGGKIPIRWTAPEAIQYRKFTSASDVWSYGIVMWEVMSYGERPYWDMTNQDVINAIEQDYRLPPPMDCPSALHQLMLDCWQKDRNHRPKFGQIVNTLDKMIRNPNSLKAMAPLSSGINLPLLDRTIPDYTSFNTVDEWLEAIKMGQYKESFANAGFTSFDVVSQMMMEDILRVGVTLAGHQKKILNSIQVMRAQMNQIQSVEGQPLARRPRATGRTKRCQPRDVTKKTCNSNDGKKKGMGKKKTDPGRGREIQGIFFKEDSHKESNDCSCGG
FGFR1, sequence (P11362 whole entry, looked up): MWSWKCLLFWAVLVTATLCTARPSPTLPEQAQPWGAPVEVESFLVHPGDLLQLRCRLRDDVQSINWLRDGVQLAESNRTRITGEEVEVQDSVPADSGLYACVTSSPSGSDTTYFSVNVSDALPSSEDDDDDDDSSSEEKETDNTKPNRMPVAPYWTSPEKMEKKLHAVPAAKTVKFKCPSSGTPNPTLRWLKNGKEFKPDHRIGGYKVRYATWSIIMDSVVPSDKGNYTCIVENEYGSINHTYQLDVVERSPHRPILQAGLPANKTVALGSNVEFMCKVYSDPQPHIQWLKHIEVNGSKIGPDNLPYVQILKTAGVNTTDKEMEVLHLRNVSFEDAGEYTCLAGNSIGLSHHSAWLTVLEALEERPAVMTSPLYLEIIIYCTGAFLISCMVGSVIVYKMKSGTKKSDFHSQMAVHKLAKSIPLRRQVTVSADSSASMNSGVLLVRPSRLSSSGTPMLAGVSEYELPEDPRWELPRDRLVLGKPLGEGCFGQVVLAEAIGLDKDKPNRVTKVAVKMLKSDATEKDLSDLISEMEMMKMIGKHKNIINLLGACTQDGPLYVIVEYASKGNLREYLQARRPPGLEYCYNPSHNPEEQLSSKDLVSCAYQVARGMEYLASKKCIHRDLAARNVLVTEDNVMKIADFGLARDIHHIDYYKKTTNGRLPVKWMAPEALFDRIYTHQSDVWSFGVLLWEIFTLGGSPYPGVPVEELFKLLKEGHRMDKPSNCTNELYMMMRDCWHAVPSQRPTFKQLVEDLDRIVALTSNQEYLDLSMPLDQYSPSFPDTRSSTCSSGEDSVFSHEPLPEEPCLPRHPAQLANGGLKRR
Fyn, sequence (P06241 whole entry, looked up): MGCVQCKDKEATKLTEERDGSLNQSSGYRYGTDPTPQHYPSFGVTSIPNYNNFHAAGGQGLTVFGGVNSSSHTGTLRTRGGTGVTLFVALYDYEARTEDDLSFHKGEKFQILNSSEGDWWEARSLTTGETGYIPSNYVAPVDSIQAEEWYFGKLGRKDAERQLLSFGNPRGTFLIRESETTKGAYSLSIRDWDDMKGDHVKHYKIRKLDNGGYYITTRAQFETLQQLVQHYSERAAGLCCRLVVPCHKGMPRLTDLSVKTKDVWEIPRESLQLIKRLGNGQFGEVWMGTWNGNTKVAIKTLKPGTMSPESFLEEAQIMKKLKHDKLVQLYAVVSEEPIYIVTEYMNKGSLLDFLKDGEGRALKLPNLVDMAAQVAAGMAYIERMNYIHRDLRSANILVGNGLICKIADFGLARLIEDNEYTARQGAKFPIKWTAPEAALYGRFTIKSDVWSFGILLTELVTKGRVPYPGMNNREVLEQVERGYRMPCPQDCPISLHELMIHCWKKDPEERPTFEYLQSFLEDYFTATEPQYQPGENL

Sequence | phosphorylation enrichment (c-Abl (mouse)) | phosphorylation enrichment (Jak2) | phosphorylation enrichment (EPHB2) | phosphorylation enrichment (FGFR3) | phosphorylation enrichment (Fer (mouse)) | phosphorylation enrichment (Fyn) | phosphorylation enrichment (Hck) | phosphorylation enrichment (c-Src) | phosphorylation enrichment (MERTK) | phosphorylation enrichment (FGFR1) | phosphorylation enrichment (AncSZ) | phosphorylation enrichment (Fes) | phosphorylation enrichment (EPHB1) | SH2 binding enrichment (c-Src SH2) | SH2 binding enrichment (Grb2 SH2) | SH2 binding enrichment (SHP2-C SH2)
TLARLYHRDST [LRIG1_Y1029_P1031R] | 0.761 | 0.61 | 0.539 | 0.729 | 0.71 | 0.565 | 0.409 | 0.449 | 0.522 | 0.563 | 0.761 | 0.844 | 0.501 | 0.552 | 0.963 | 0.608
HHTDECEYDEL [TGM1_Y134_Y134C] | 0.906 | 1.33 | 0.772 | 1.03 | 0.729 | 0.869 | 0.667 | 0.894 | 0.641 | 0.504 | 1.8 | 1.75 | 0.835 | 0.516 | 1.21 | 0.764
KLSFSYGQALQ [ALDOB_Y302_R304Q] | 0.686 | 1.03 | 0.564 | 0.72 | 0.529 | 0.422 | 0.383 | 0.41 | 0.437 | 0.503 | 1 | 1.1 | 0.649 | 0.475 | 0.861 | 0.703
SSSGAYGGGYG [KRT19_Y61] | 0.386 | 0.346 | 0.403 | 0.367 | 0.364 | 0.359 | 0.434 | 0.377 | 0.34 | 0.353 | 0.454 | 0.526 | 0.365 | 0.506 | 0.861 | 0.639
KTTSGYAGGLS [KRT8_Y419] | 0.456 | 0.373 | 0.304 | 0.376 | 0.422 | 0.33 | 0.289 | 0.369 | 0.3 | 0.398 | 0.404 | 0.496 | 0.332 | 0.431 | 1.32 | 0.617
PATFTYDEFKK [COL8A2_Y648_YF] | 0.864 | 1.3 | 1.24 | 1.12 | 1.68 | 1.9 | 2.06 | 1.68 | 0.677 | 0.77 | 1.49 | 1.43 | 1.38 | 0.791 | 1.03 | 0.53
LNRAGYCDALE [MTUS1_Y151_C148R] | 0.749 | 1 | 0.988 | 0.994 | 0.571 | 0.537 | 0.424 | 0.591 | 0.484 | 0.686 | 1.06 | 1.12 | 0.684 | 0.727 | 0.773 | 0.773
PTQLPYDHKWE [KIT_Y578] | 0.655 | 0.68 | 0.631 | 0.696 | 0.601 | 0.491 | 0.87 | 0.618 | 0.449 | 0.581 | 0.859 | 1.33 | 0.716 | 0.524 | 0.923 | 0.575
HRAVEYLLMGI [RAD23A_Y197_T200M] | 0.665 | 0.921 | 0.419 | 1.02 | 0.351 | 0.429 | 0.552 | 0.441 | 0.471 | 1.19 | 0.976 | 0.802 | 0.479 | 1.11 | 1.35 | 1.55
FQKDVYDIPPS [NEDD9_Y177_YF] | 0.662 | 0.629 | 2.01 | 0.559 | 0.502 | 2.59 | 2.69 | 2.62 | 7.04 | 0.384 | 1.01 | 0.681 | 0.681 | 0.466 | 0.871 | 0.745
KLADMYGGGED [CDH1_Y876] | 0.455 | 0.732 | 0.43 | 0.509 | 0.461 | 0.484 | 0.463 | 0.42 | 0.436 | 0.561 | 0.766 | 0.79 | 0.424 | 0.558 | 0.812 | 0.748
IMFTSYFLTIL [TAS2R16_Y239_V235M] | 0.955 | 2.38 | 0.555 | 0.922 | 0.579 | 0.622 | 0.623 | 0.578 | 0.476 | 0.732 | 1.34 | 1.52 | 0.755 | 1.03 | 1.04 | 0.963
EELLHYAIVTP [POC5_Y37] | 1.56 | 1.04 | 1.49 | 1.1 | 6.7 | 0.723 | 1.23 | 1.09 | 5.76 | 1.33 | 1.48 | 1.24 | 3.27 | 1.13 | 0.691 | 1.7
GFIISYREEEQ | 0.598 | 1.34 | 0.5 | 0.729 | 0.644 | 0.488 | 0.456 | 0.399 | 0.313 | 0.478 | 1.41 | 1.27 | 0.495 | 0.581 | 0.672 | 0.633
ILNANYMAKRL [GLDC_Y839] | 0.394 | 0.436 | 0.363 | 0.412 | 0.458 | 0.412 | 0.366 | 0.34 | 0.446 | 0.368 | 0.476 | 0.514 | 0.334 | 0.461 | 1.08 | 0.509
TEFIQYMRRKN [MAX_Y73_YF] | 0.404 | 0.594 | 0.732 | 0.486 | 0.51 | 0.547 | 0.458 | 0.521 | 0.472 | 0.367 | 0.701 | 0.629 | 0.44 | 0.387 | 0.675 | 0.54
MGRVNYGAFIN [GLB1_Y485_YF] | 0.472 | 0.616 | 0.498 | 0.496 | 0.382 | 0.408 | 0.422 | 0.562 | 0.426 | 0.398 | 0.567 | 0.707 | 0.399 | 0.585 | 0.903 | 0.969

Sequence | phosphorylation enrichment (c-Abl (mouse)) | phosphorylation enrichment (Jak2) | phosphorylation enrichment (EPHB2) | phosphorylation enrichment (FGFR3) | phosphorylation enrichment (Fer (mouse)) | phosphorylation enrichment (Fyn) | phosphorylation enrichment (Hck) | phosphorylation enrichment (c-Src) | phosphorylation enrichment (MERTK) | phosphorylation enrichment (FGFR1) | phosphorylation enrichment (AncSZ) | phosphorylation enrichment (Fes) | phosphorylation enrichment (EPHB1) | SH2 binding enrichment (c-Src SH2) | SH2 binding enrichment (Grb2 SH2) | SH2 binding enrichment (SHP2-C SH2)
PFVFFYSFLLK [PTEN_Y178_R173P_YF] | 1.52 | 2.1 | 0.686 | 1.25 | 0.983 | 0.679 | 0.983 | 0.577 | 0.931 | 0.751 | 1.99 | 2.12 | 1.07 | 0.496 | 1.04 | 0.913
EFHRLYEEFTR [PIK3R1_Y467_D464H_YF] | 0.709 | 0.714 | 2.58 | 0.579 | 3.87 | 7.21 | 7.49 | 5.59 | 4.42 | 0.573 | 0.97 | 0.941 | 5.22 | 0.694 | 0.86 | 0.782
SSVKPYRVYCD [FGB_Y266] | 0.52 | 0.657 | 0.564 | 0.516 | 0.42 | 0.464 | 0.442 | 0.519 | 0.401 | 0.463 | 0.659 | 0.791 | 0.449 | 1.29 | 1.07 | 0.94
VIDGKYAFKPK [GTF2E2_Y137] | 0.585 | 0.421 | 0.304 | 0.329 | 0.276 | 0.348 | 0.412 | 0.328 | 0.323 | 0.348 | 0.413 | 0.457 | 0.264 | 0.451 | 0.873 | 0.602
VVKLTYNENDN [CAMKK2_Y183_A182T] | 0.551 | 0.726 | 0.545 | 0.564 | 0.577 | 0.468 | 0.5 | 0.419 | 0.467 | 0.618 | 0.939 | 0.917 | 0.491 | 0.469 | 0.815 | 0.673
EIIPFYGMSTY [FNDC3B_Y175] | 0.818 | 0.768 | 0.681 | 0.709 | 0.88 | 0.864 | 1.1 | 0.902 | 0.687 | 0.454 | 0.751 | 0.875 | 0.685 | 4.96 | 0.742 | 0.539
ETAENYLGYTA [HSPA9_Y181_H184Y] | 0.691 | 0.839 | 0.684 | 0.784 | 0.498 | 0.563 | 0.751 | 0.678 | 0.516 | 0.748 | 1.17 | 1.23 | 0.674 | 0.557 | 0.882 | 0.7
FVGGFYGGCNE [CTSC_Y352_YF] | 0.86 | 1.27 | 0.752 | 0.918 | 0.941 | 0.666 | 1.02 | 0.784 | 0.516 | 0.632 | 1.22 | 1.42 | 0.696 | 0.589 | 0.895 | 0.563
KLLPEYPGILS [DHFR2_Y163_V166I] | 0.627 | 0.739 | 0.458 | 0.524 | 0.466 | 0.436 | 0.419 | 0.431 | 0.376 | 0.467 | 0.772 | 0.832 | 0.488 | 0.528 | 0.884 | 0.71
KSLFHYRQYSA [CPS1_Y1491] | 0.567 | 0.686 | 0.602 | 0.646 | 0.408 | 0.54 | 0.512 | 0.493 | 0.469 | 0.531 | 0.778 | 0.808 | 0.527 | 0.379 | 0.749 | 0.521
MKALGYFAVVK [OPA1_Y498_T503K] | 0.767 | 1 | 0.569 | 0.692 | 0.596 | 0.464 | 0.48 | 0.397 | 0.439 | 0.51 | 1.05 | 1.25 | 0.507 | 0.595 | 0.792 | 0.913
RQLEIYRASRP [ERCC4_Y594] | 0.727 | 0.535 | 0.254 | 0.389 | 0.427 | 0.426 | 0.316 | 0.408 | 0.391 | 0.312 | 0.663 | 0.673 | 0.388 | 0.402 | 0.623 | 0.49
KDQGIYEDFVE [MYL6_Y86_T85I_YF] | 0.932 | 1.3 | 0.949 | 0.901 | 1.82 | 2.6 | 1.07 | 2.84 | 0.614 | 0.688 | 1.45 | 1.49 | 0.831 | 0.572 | 1.05 | 1.07
EHLNRYINDTF [TTLL10_Y446_S448N] | 0.751 | 1.08 | 0.608 | 0.654 | 0.53 | 0.467 | 0.49 | 0.517 | 0.46 | 0.525 | 0.853 | 1.08 | 0.567 | 1.02 | 6.49 | 0.728
EPNSRYTYKLE [USH2A_Y3745] | 0.753 | 0.628 | 0.46 | 0.534 | 0.27 | 0.492 | 0.439 | 0.501 | 0.384 | 0.438 | 0.684 | 0.895 | 0.537 | 0.663 | 1.02 | 0.768
MEFLPYGSLRD [JAK2_Y934_YF] | 0.692 | 0.798 | 0.451 | 0.615 | 0.832 | 1.64 | 2.29 | 2.6 | 0.388 | 0.441 | 0.857 | 1.56 | 0.571 | 0.573 | 0.798 | 0.574
